One may read the Km as the substrate concentration at which the rate is half of its maximum.

Substrate in this data set: CCCCC/C=C\C/C=C\C/C=C\C/C=C\CCCC(=O)SCCNC(=O)CCNC(=O)[C@H](O)C(C)(C)COP(=O)(O)OP(=O)(O)OC[C@H]1O[C@@H](n2cnc3c(N)ncnc32)[C@H](O)[C@@H]1OP(=O)(O)O
The data set can be described thus: fluorescence assay of CoA-SH release with CPM. Type of data set: biochemical, Homo sapiens. The note with it: PMAL-C8 reconstituted, 100 µM lyso-PI, pH 7.5, 37 °C, 2 mg/ml BSA.

B1: MBOAT7 (Homo sapiens) (protein)
chain: MSPEEWTYLVVLLISIPIGFLFKKAGPGLKRWGAAAVGLGLTLFTCGPHTLHSLVTILGTWALIQAQPCSCHALALAWTFSYLLFFRALSLLGLPTPTPFTNAVQLLLTLKLVSLASEVQDLHLAQRKEMASGFSKGPTLGLLPDVPSLMETLSYSYCYVGIMTGPFFRYRTYLDWLEQPFPGAVPSLRPLLRRAWPAPLFGLLFLLSSHLFPLEAVREDAFYARPLPARLFYMIPVFFAFRMRFYVAWIAAECGCIAAGFGAYPVAAKARAGGGPTLQCPPPSSPEKAASLEYDYETIRNIDCYSTDFCVRVRDGMRYWNMTVQWWLAQYIYKSAPARSYVLRSAWTMLLSAYWHGLHPGYYLSFLTIPLCLAAEGRLESALRGRLSPGGQKAWDWVHWFLKMRAYDYMCMGFVLLSLADTLRYWASIYFCIHFLALAALGLGLALGGGSPSRRKAASQPTSLAPEKLREE
notes: full-length (1-472), C-terminal GFP-strepII removed by TEV; expressed in HEK293 freestyle cells; digitonin then amphipol PMAL-C8; monomer, 53 kDa
Consider B1, for which the Km is listed as 46 µM.

Source of the values: publication PMC10267149, “The structure of phosphatidylinositol remodeling MBOAT7 reveals its catalytic mechanism and enables inhibitor identification” (Nature Communications, 2023).
